In the supplement of paper PMC6755084:

Tested on: F1*sub RNA substrate (template-directed ligation)
Test: fraction ligated after 30 min (ligated reads / total reads); higher = more ligase activity; sequences stand for … in GAGACCGCAACTGAAAAGTTGT…AGTTCTGCACGTAGAAGCAAAAGGC
Details: 42 °C
How it was run: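 Ligase ribozyme variants were made from oligo-pool templates by PCR amplification, T7 transcription and gel purification. After gel separation, ligated and unligated bands were reverse transcribed with barcoded primers and sequenced on a MiSeq, with core bases filtered at quality ≥20. The fraction ligated for each variant was the number of ligated reads divided by total reads.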

Row | Sequence | fraction ligated
1 | TATACTTTCGTAAGACACTTTGATGGGTTGA [3d806] | 0.105
2 | TATCACTTTCGTAAGCACTTTGGATGGGTTA [3d1537] | 0.727
3 | TATCACTTGTCGTAAGCACTTGGATGGTTGA [3d2132] | 0.108
4 | TATCACTGCGTAAGCCTTTGGATGGGTTGA [s2] | 0.814
5 | TATCACTTGTCGTGACACTTGGATGGGTTGA [3d1986] | 0.779
6 | TATACTTGTCGTAAGAACTTTGGATGGTTGA [3d908] | 0.0441
7 | TATCACTTGTCGTAACCTTTGGATGGGTTGA [3d1994] | 0.821
8 | TATCACTTGTCTAAGACACTTGGATGGGTTG [3d1884] | 0.781
9 | TTCATTGTCGTAAGACACTTTGGATGGGTTA [3d334] | 0.0829
10 | TATCACTTGTGTAAGACACTTGGTGGGTTGA [3d1788] | 0.0212
11 | TATCCTTTCGTAAGACATTTGGATGGGTTGA [3d976] | 0.787
12 | TATCACTTGGTAAGACATTTGGATGGGTTGA [3d1591] | 0.832
13 | TATCACTTGTCGTAAGCACTTTGGATGGGTTA [2d252] | 0.737
14 | TATACTTGTCTAAGACACTTTGGAGGGTTGA [3d853] | 0.0271
15 | TATCATTGTCGTAAGCACTTTGGATGGTTGA [3d1244] | 0.0553
16 | TTCACTTGTCGTAAGACATTTGATGGGTTGA [3d478] | 0.0347
17 | TATCACTTGCGTAAACACTTTGGATGGTTGA [3d1646] | 0.149
18 | TATCATTGTCGTAAGACCTTTGGTGGGTTGA [3d1257] | 0.426
19 | TATCCTTGTCTAAGACACTTTGGATGGGTTGA [2d94] | 0.798
20 | TATCATTGTCTAAGACACTTTGGTGGGTTGA [3d1196] | 0.222
21 | ATACTGTCGTAAGACACTTTGGATGGGTTGA [3d48] | 0.361
22 | TACATTGTCGAAGACACTTTGGATGGGTTGA [3d552] | 0.0671
23 | TATCACTTGTCGTAAACCTTTGGATGGGTTA [3d2072] | 0.746

Row | Sequence | fraction ligated
24 | TATCTTGTCGTAAGACACTTGGATGGGTTGA [3d751] | 0.776
25 | TATCACTTGTCGTAAGACACTTTGAGGGTTGA [2d285] | 0.00683
26 | TATACTTGTCGTAGCACTTTGGATGGGTTGA [3d872] | 0.787
27 | TATCACTGTCGTAAGACACTTTGGAGGGTTA [3d1458] | 0.0132
28 | TATCACTTTCGTAAGACACTTGGATGGTTGA [3d1565] | 0.134
29 | TATCACTTGTCGTAGAACTTTGGATGGTTGA [3d2018] | 0.206
30 | TATCACTTGCTAAGACACTTTGGATGGTTGA [3d1610] | 0.351
31 | TTCACTTGTCGAAGACACTTTGGTGGGTTGA [3d424] | 0.0265
32 | TATCCTGCGTAAGACACTTTGGATGGGTTGA [3d951] | 0.786
33 | TATCACTTTCGTAAGACACTTTGGATGGGTTGA [1d8] | 0.815
34 | TATCACTTGTCGTAAACACTTTGGAGGGTTA [3d2099] | 0.101
35 | TTCACTGTCTAAGACACTTTGGATGGGTTGA [3d340] | 0.774
36 | TACACTTGTCGTAAGACACTTTGATGGGTTA [3d725] | 0.0317
37 | ACACTTGTCGTAAGACACTTGGATGGGTTGA [3d39] | 0.157
38 | TATCATTGTCGAAGACCTTTGGATGGGTTGA [3d1205] | 0.768
39 | TATCACTTGTCTAGAACTTTGGATGGGTTGA [3d1826] | 0.796
40 | TATCACTTGTCGTAAGACCTTTGGGGGTTGA [3d2196] | 0.0519
41 | TATCACTTGTCAAGACATTTGGATGGGTTGA [3d1815] | 0.829
42 | TATCACTTCGAAGACACTTTGGATGGGTTGA [3d1313] | 0.803
43 | TATACTTGTCGTAAGACACTTGGATGGGTTG [3d931] | 0.756
44 | ATCACTGTCTAAGACACTTTGGATGGGTTGA [3d109] | 0.756
45 | TATACTTGTCGTAGACCTTTGGATGGGTTGA [3d874] | 0.616
46 | ATCACTTGTGTAGACACTTTGGATGGGTTGA [3d158] | 0.864

Row | Sequence | fraction ligated
47 | TATCACTTTCGAAGCACTTTGGATGGGTTGA [3d1495] | 0.766
48 | TATCACTTGTCGTAGACATTTGGATGGGTTGA [2d226] | 0.842
49 | TATCACTTGTCGTAAGAACTTTGAGGGTTGA [3d2168] | 0.0393
50 | ACACTTGTCGTAAGACACTTTGGATGGGTTG [3d45] | 0.739
51 | TATCACTGTCGTAAGAACTTTGGAGGGTTGA [3d1422] | 0.0317
52 | TATCACTTGTCTAAGACCTTTGATGGGTTGA [3d1865] | 0.732
53 | TATCCTTTCGTAAGACACTTTGGATGGGTTG [3d983] | 0.766
54 | TATCCTTGTCGTAAGAATTTGGATGGGTTGA [3d1075] | 0.79
55 | TATCCTTGTCGTAAGACATTTGGAGGGTTGA [3d1093] | 0.0135
56 | TATCACTTTCGTAAGCACTTTGGATGGTTGA [3d1536] | 0.0345
57 | ATCCTTGTCGTAAGACACTTTGGAGGGTTGA [3d82] | 0.1
58 | TATCATTGTGTAAGACACTTTGGTGGGTTGA [3d1182] | 0.0386
59 | TATCACTTGTCTAAGACACTTGATGGGTTGA [3d1879] | 0.708
60 | TATCACTGCGTAAGACACTTTGGATGGGTTG [3d1342] | 0.834
61 | TATCATGTGTAAGACACTTTGGATGGGTTGA [3d1124] | 0.84
62 | TATCACTTTCGTAAGCACTTTGGATGGGTTG [3d1538] | 0.764
63 | TATCACTTGTCAAGACACTTTGGATGGGTTG [3d1822] | 0.777
64 | TATCACTTTCGTAAGAACTTTGGTGGGTTGA [3d1542] | 0.342
65 | TATCACTTGTGTAAACACTTGGATGGGTTGA [3d1747] | 0.816
66 | TATCACTTGTCGTAAGACACTTTATGGTTGA [3d2257] | 0.0255
67 | TATCACTTGTGTAAAACTTTGGATGGGTTGA [3d1744] | 0.856
68 | TTCACTTTCGTAAGACATTTGGATGGGTTGA [3d363] | 0.775
69 | TATCCTTGCGTAAGACACTTTGATGGGTTGA [3d994] | 0.815

Row | Sequence | fraction ligated
70 | TATCACTTGTCGTAAGACACTTGGATGGTTA [3d2251] | 0.0219
71 | TATCCTTGTCGTAAGCATTTGGATGGGTTGA [3d1067] | 0.763
72 | TTCACTTGTCGAAGACACTTTGGAGGGTTGA [3d425] | 0.157
73 | TATACTGTCGTAAGACACTTGGATGGGTTGA [3d789] | 0.803
74 | TACACTTGTCGTAAGAACTTTGGATGGGTTGA [2d59] | 0.0167
75 | TTCACTTGTCGTAAGCATTTGGATGGGTTGA [3d454] | 0.769
76 | TATCATTGTGTAAGACCTTTGGATGGGTTGA [3d1178] | 0.875
77 | TATCACTGTGTAAGACACTTTGGTGGGTTGA [3d1353] | 0.0456
78 | ATCACTTGTCGTAAGAACTTTGGATGGGTTG [3d238] | 0.794
79 | TATCACTTGTCGAAGACCTTTGGAGGGTTGA [3d1946] | 0.198
80 | TATCACTTGTGTAAGACACTTTGGAGGGTTA [3d1804] | 0.0394
81 | ACACTTGTCGTAAGCACTTTGGATGGGTTGA [3d35] | 0.221
82 | TATCACTGTCGTAAGACACTTTGGATGGTTGA [2d144] | 0.513
83 | TATCTTGTCGTAGACACTTTGGATGGGTTGA [3d745] | 0.819
84 | TATCACTTTCGTAAGACCTTTGGTGGGTTGA [3d1549] | 0.104
85 | TTACTTGTCGAAGACACTTTGGATGGGTTGA [3d284] | 0.131
86 | TACACTTGTCTAAGACACTTTGGATGGGTTG [3d645] | 0.595
87 | TATCACTGTCGTGACACTTTGGATGGGTTGA [3d1385] | 0.854
88 | TATCTTGTCGTAAGACACTTTGGATGGGTTGA [2d69] | 0.791
89 | ATCACTTGTCGAGACACTTTGGATGGGTTGA [3d185] | 0.757
90 | TTCCTTGTCGTAAGACACTTTGGATGGTTGA [3d314] | 0.175
91 | TATCACTTTCGAAGACCTTTGGATGGGTTGA [3d1497] | 0.765
92 | TTCACTTGCGTAAGACACTTTGGATGGTTGA [3d384] | 0.17

Row | Sequence | fraction ligated
93 | TATCACTTTGTAAGACACTTTGATGGGTTGA [3d1473] | 0.793
94 | TTCATTGTCGTAAGACACTTTGGATGGTTGA [3d333] | 0.421
95 | TATCACTTGTCGTAAACACTTTGTGGGTTGA [3d2089] | 0.0322
96 | ATCACTTGTCGTAGACACTTTGATGGGTTGA [3d205] | 0.715
97 | TATCATTGTCGTAAGACCTTTGATGGGTTGA [3d1256] | 0.778
98 | TATACTTGTCGTAAGCCTTTGGATGGGTTGA [3d894] | 0.68
99 | TACACTTGTCGAAGACATTTGGATGGGTTGA [3d651] | 0.444
100 | TATCACTTGCGTAAGACACTTGATGGGTTGA [3d1682] | 0.747
101 | TATCACTGTCGTAAGACACTTTGGAGGGTTG [3d1459] | 0.0454
102 | ATATTGTCGTAAGACACTTTGGATGGGTTGA [3d47] | 0.0915
103 | TATCACTTGTGTAAGACACTTTGGTGGGTTG [3d1802] | 0.0157
104 | TATCCTTGCGTAAGACACTTTGGATGGTTGA [3d997] | 0.0475
105 | ATCACTTGCGTAAGACATTTGGATGGGTTGA [3d148] | 0.768
106 | ATCACTTGTGTAAGACACTTTGGAGGGTTGA [3d167] | 0.116
107 | TATCACTTTCGTAAAACTTTGGATGGGTTGA [3d1519] | 0.823
108 | TATCACTTGTCGTAGACATTTGGTGGGTTGA [3d2030] | 0.0449
109 | TATCATTGCGTAAGACACTTTGGTGGGTTGA [3d1167] | 0.0667
110 | TTCACTTTCGAAGACACTTTGGATGGGTTGA [3d357] | 0.145
111 | TACACTTGTCGTAAGACCTTTGGATGGGTTGA [2d60] | 0.625
112 | ATCACTTGTCGTAAGACATTTGGATGGGTTG [3d252] | 0.739
